This data set concerns Escherichia coli TOP10. As to the kind of experiment: shrunken log2 fold change of peptide-encoding DNA abundance (4.5 h post-induction vs induction); higher = less antimicrobial activity (less host growth inhibition). The settings on record: time post-induction: 4.5 h; library: site-saturation at positions 5, 18, 19, 20.
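Also: peptides expressed intracellularly from a pBAD plasmid library in pooled LB shake-flask culture, induced with 0.3% L-arabinose, DNA abundance read by NGS, three biological replicates, DESeq2 with apeglm shrinkage.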

For RRIRCRPPRLPRPRPRPLHCPRP, the “shrunken log2 fold change” value was -0.1.

As to RRIRLRPPRLPRPRPRPFRPPRP, the “shrunken log2 fold change” value is 0.0752.

For the sequence RRIRCRPPRLPRPRPRPQDYPRP, the “shrunken log2 fold change” value was -0.176.

As for RRIRKRPPRLPRPRPRPLTYPRP, the “shrunken log2 fold change” value stood at 0.0522.

Take RRIRHRPPRLPRPRPRPWNAPRP: the “shrunken log2 fold change” value is -0.0678.

In the case of RRIRRRPPRLPRPRPRPDNQPRP, the “shrunken log2 fold change” value was 0.0853.

As for RRIRFRPPRLPRPRPRPDVWPRP, the “shrunken log2 fold change” value turned out to be 0.128.

Consider RRIRFRPPRLPRPRPRPIAQPRP, for which the “shrunken log2 fold change” value is -0.0298.

For the sequence RRIRARPPRLPRPRPRPLHIPRP, the “shrunken log2 fold change” value is -0.559.

For RRIRMRPPRLPRPRPRPFVGPRP, the “shrunken log2 fold change” value was found to be 0.0187.

As for RRIRCRPPRLPRPRPRPFWWPRP, the “shrunken log2 fold change” value came to 0.925.

In the case of RRIRIRPPRLPRPRPRPTFPPRP, the “shrunken log2 fold change” value was -0.316.

Consider RRIRRRPPRLPRPRPRPKWPPRP, for which the “shrunken log2 fold change” value worked out at 0.141.

As to RRIRYRPPRLPRPRPRPRFYPRP, the “shrunken log2 fold change” value is -0.45.

For the sequence RRIRPRPPRLPRPRPRPCILPRP, the “shrunken log2 fold change” value is -1.04.

As to RRIRFRPPRLPRPRPRPATPPRP, the “shrunken log2 fold change” value came to 0.315.

Regarding RRIRERPPRLPRPRPRPYMLPRP, the “shrunken log2 fold change” value was -1.42.

As for RRIRFRPPRLPRPRPRPKREPRP, the “shrunken log2 fold change” value was determined as 0.0359.

With RRIRRRPPRLPRPRPRPYSYPRP, the “shrunken log2 fold change” value was -0.0587.

With RRIRGRPPRLPRPRPRPPTKPRP, the “shrunken log2 fold change” value is 0.968.

In the case of RRIRMRPPRLPRPRPRPYPNPRP, the “shrunken log2 fold change” value was -0.021.

RRIRKRPPRLPRPRPRPPGSPRP: the “shrunken log2 fold change” value was 0.618.

Regarding RRIRVRPPRLPRPRPRPLPDPRP, the “shrunken log2 fold change” value was -0.0431.

Consider RRIRCRPPRLPRPRPRPMHNPRP, for which the “shrunken log2 fold change” value is -0.293.

As for RRIRDRPPRLPRPRPRPHITPRP, the “shrunken log2 fold change” value was -0.7.

Regarding RRIRVRPPRLPRPRPRPMNEPRP, the “shrunken log2 fold change” value is -0.111.

Consider RRIRNRPPRLPRPRPRPSTMPRP, for which the “shrunken log2 fold change” value is -1.15.

For the sequence RRIRYRPPRLPRPRPRPNNDPRP, the “shrunken log2 fold change” value is -1.14.

RRIRPRPPRLPRPRPRPCLFPRP: the “shrunken log2 fold change” value was -0.357.

Regarding RRIRIRPPRLPRPRPRPSRHPRP, the “shrunken log2 fold change” value is -0.384.

Turning to RRIRSRPPRLPRPRPRPICMPRP, the “shrunken log2 fold change” value came out at 0.177.

As to RRIRARPPRLPRPRPRPEEFPRP, the “shrunken log2 fold change” value is 0.00844.

For the sequence RRIRVRPPRLPRPRPRPDFGPRP, the “shrunken log2 fold change” value is -0.0183.

For RRIRERPPRLPRPRPRPFQIPRP, the “shrunken log2 fold change” value is -0.145.

Take RRIRSRPPRLPRPRPRPTIGPRP: the “shrunken log2 fold change” value came out at 0.0365.

As to RRIRVRPPRLPRPRPRPLVLPRP, the “shrunken log2 fold change” value is -0.122.

Take RRIRTRPPRLPRPRPRPWGGPRP: the “shrunken log2 fold change” value amounted to 0.439.

Consider RRIRERPPRLPRPRPRPRWQPRP, for which the “shrunken log2 fold change” value was 0.245.

Regarding RRIRDRPPRLPRPRPRPAMRPRP, the “shrunken log2 fold change” value worked out at 0.415.

For RRIRDRPPRLPRPRPRPCYAPRP, the “shrunken log2 fold change” value turned out to be 0.326.

Turning to RRIRRRPPRLPRPRPRPCYGPRP, the “shrunken log2 fold change” value was -0.214.

In the case of RRIRRRPPRLPRPRPRPPGDPRP, the “shrunken log2 fold change” value came to 1.06.

Turning to RRIRMRPPRLPRPRPRPDMSPRP, the “shrunken log2 fold change” value is -0.00277.

Consider RRIRRRPPRLPRPRPRPFFYPRP, for which the “shrunken log2 fold change” value is 0.0607.

As to RRIRIRPPRLPRPRPRPEGKPRP, the “shrunken log2 fold change” value is -0.0199.

As to RRIRFRPPRLPRPRPRPTWTPRP, the “shrunken log2 fold change” value was -0.11.

Turning to RRIRERPPRLPRPRPRPCNSPRP, the “shrunken log2 fold change” value is 0.00408.

For the sequence RRIRQRPPRLPRPRPRPTAQPRP, the “shrunken log2 fold change” value came out at 0.0588.

For the sequence RRIRSRPPRLPRPRPRPEKDPRP, the “shrunken log2 fold change” value came to 0.124.

Take RRIRQRPPRLPRPRPRPDMWPRP: the “shrunken log2 fold change” value is 0.0275.

Regarding RRIRYRPPRLPRPRPRPFDLPRP, the “shrunken log2 fold change” value is -0.967.

As for RRIRDRPPRLPRPRPRPQQPPRP, the “shrunken log2 fold change” value is 0.902.

Regarding RRIRDRPPRLPRPRPRPFESPRP, the “shrunken log2 fold change” value is -0.00133.

For RRIRKRPPRLPRPRPRPHTDPRP, the “shrunken log2 fold change” value was -0.0857.

Turning to RRIRGRPPRLPRPRPRPAMAPRP, the “shrunken log2 fold change” value came out at 0.913.

As to RRIRKRPPRLPRPRPRPPRSPRP, the “shrunken log2 fold change” value was 2.69.

RRIRNRPPRLPRPRPRPYYVPRP: the “shrunken log2 fold change” value is -0.207.

With RRIRERPPRLPRPRPRPSYAPRP, the “shrunken log2 fold change” value was -0.176.

For RRIRLRPPRLPRPRPRPPCDPRP, the “shrunken log2 fold change” value was -0.29.

For the sequence RRIRARPPRLPRPRPRPKKRPRP, the “shrunken log2 fold change” value came to 0.626.

In the case of RRIRYRPPRLPRPRPRPAWMPRP, the “shrunken log2 fold change” value was -0.0583.

As for RRIRFRPPRLPRPRPRPSTLPRP, the “shrunken log2 fold change” value is -0.757.

For RRIRLRPPRLPRPRPRPMAAPRP, the “shrunken log2 fold change” value came to 0.627.

For the sequence RRIRCRPPRLPRPRPRPRCAPRP, the “shrunken log2 fold change” value was 0.346.

Turning to RRIRPRPPRLPRPRPRPVFKPRP, the “shrunken log2 fold change” value is -0.189.

On to RRIRNRPPRLPRPRPRPETCPRP, for which the “shrunken log2 fold change” value came to 0.262.

For RRIRFRPPRLPRPRPRPLNSPRP, the “shrunken log2 fold change” value is -0.377.

Turning to RRIRSRPPRLPRPRPRPDFKPRP, the “shrunken log2 fold change” value is -0.0946.

Turning to RRIRGRPPRLPRPRPRPHSNPRP, the “shrunken log2 fold change” value amounted to 0.117.

For RRIRNRPPRLPRPRPRPILSPRP, the “shrunken log2 fold change” value was -0.00144.

On to RRIRHRPPRLPRPRPRPSKDPRP, for which the “shrunken log2 fold change” value was -0.293.

Take RRIRCRPPRLPRPRPRPINNPRP: the “shrunken log2 fold change” value is -0.633.

As to RRIRERPPRLPRPRPRPGSHPRP, the “shrunken log2 fold change” value was -0.152.

For RRIRFRPPRLPRPRPRPVWFPRP, the “shrunken log2 fold change” value was -0.182.

In the case of RRIRHRPPRLPRPRPRPPTPPRP, the “shrunken log2 fold change” value was determined as 0.518.

As for RRIRYRPPRLPRPRPRPEGWPRP, the “shrunken log2 fold change” value stood at 0.489.

On to RRIRFRPPRLPRPRPRPVPDPRP, for which the “shrunken log2 fold change” value was -0.136.

As for RRIRERPPRLPRPRPRPGTYPRP, the “shrunken log2 fold change” value is -0.478.

Consider RRIRCRPPRLPRPRPRPEACPRP, for which the “shrunken log2 fold change” value was found to be 0.0368.

As for RRIRDRPPRLPRPRPRPYDYPRP, the “shrunken log2 fold change” value is -0.097.

As for RRIRSRPPRLPRPRPRPIFIPRP, the “shrunken log2 fold change” value is -0.329.

As for RRIRQRPPRLPRPRPRPKRNPRP, the “shrunken log2 fold change” value worked out at 0.29.

Regarding RRIRERPPRLPRPRPRPLPRPRP, the “shrunken log2 fold change” value turned out to be 0.179.

Turning to RRIRERPPRLPRPRPRPWEYPRP, the “shrunken log2 fold change” value is 0.0155.

RRIRPRPPRLPRPRPRPQHIPRP: the “shrunken log2 fold change” value is -0.648.

RRIRHRPPRLPRPRPRPISFPRP: the “shrunken log2 fold change” value is -0.281.

Regarding RRIRYRPPRLPRPRPRPRGPPRP, the “shrunken log2 fold change” value turned out to be 0.127.

Consider RRIRRRPPRLPRPRPRPFQDPRP, for which the “shrunken log2 fold change” value was -0.15.

With RRIRDRPPRLPRPRPRPPKEPRP, the “shrunken log2 fold change” value is -0.2.

On to RRIRVRPPRLPRPRPRPVVNPRP, for which the “shrunken log2 fold change” value was -0.0959.

Turning to RRIRKRPPRLPRPRPRPRRIPRP, the “shrunken log2 fold change” value turned out to be 0.339.

Take RRIRNRPPRLPRPRPRPLTSPRP: the “shrunken log2 fold change” value was -0.0977.

Take RRIRGRPPRLPRPRPRPIMPPRP: the “shrunken log2 fold change” value amounted to 0.0639.

With RRIRHRPPRLPRPRPRPRKLPRP, the “shrunken log2 fold change” value is -0.141.

For RRIRGRPPRLPRPRPRPHEYPRP, the “shrunken log2 fold change” value was -0.325.

Consider RRIRPRPPRLPRPRPRPRFSPRP, for which the “shrunken log2 fold change” value is -0.0121.

On to RRIRKRPPRLPRPRPRPYPIPRP, for which the “shrunken log2 fold change” value was 0.11.

Turning to RRIRPRPPRLPRPRPRPWPFPRP, the “shrunken log2 fold change” value was 0.108.

For RRIRGRPPRLPRPRPRPKHFPRP, the “shrunken log2 fold change” value was -0.121.

As for RRIRIRPPRLPRPRPRPEVCPRP, the “shrunken log2 fold change” value came to 0.503.

For the sequence RRIRRRPPRLPRPRPRPYSRPRP, the “shrunken log2 fold change” value is -0.391.

Consider RRIRPRPPRLPRPRPRPNTIPRP, for which the “shrunken log2 fold change” value was -0.553.

RRIRWRPPRLPRPRPRPTTWPRP: the “shrunken log2 fold change” value came out at 0.297.

RRIRDRPPRLPRPRPRPAMKPRP: the “shrunken log2 fold change” value was -0.0728.

Regarding RRIRYRPPRLPRPRPRPIGTPRP, the “shrunken log2 fold change” value was -0.1.

RRIRVRPPRLPRPRPRPVHKPRP: the “shrunken log2 fold change” value came out at 0.129.

Consider RRIRKRPPRLPRPRPRPTEQPRP, for which the “shrunken log2 fold change” value stood at 2.01.

For RRIRKRPPRLPRPRPRPWPHPRP, the “shrunken log2 fold change” value came to 0.298.

As for RRIRHRPPRLPRPRPRPYYFPRP, the “shrunken log2 fold change” value is -0.178.

For RRIRHRPPRLPRPRPRPHHAPRP, the “shrunken log2 fold change” value was -0.0366.

With RRIRFRPPRLPRPRPRPVFYPRP, the “shrunken log2 fold change” value is -0.536.

In the case of RRIRERPPRLPRPRPRPEDFPRP, the “shrunken log2 fold change” value was determined as 0.089.

As to RRIRPRPPRLPRPRPRPDHPPRP, the “shrunken log2 fold change” value was -0.147.

On to RRIRCRPPRLPRPRPRPEFQPRP, for which the “shrunken log2 fold change” value came out at 0.0126.

Take RRIRPRPPRLPRPRPRPFVPPRP: the “shrunken log2 fold change” value was 0.0581.

RRIRARPPRLPRPRPRPTKVPRP: the “shrunken log2 fold change” value is 0.339.

RRIRDRPPRLPRPRPRPHVAPRP: the “shrunken log2 fold change” value was -0.0272.

For the sequence RRIRLRPPRLPRPRPRPRHLPRP, the “shrunken log2 fold change” value was -0.818.

For the sequence RRIRTRPPRLPRPRPRPRHFPRP, the “shrunken log2 fold change” value is -0.085.

With RRIRVRPPRLPRPRPRPHYPPRP, the “shrunken log2 fold change” value was -0.675.

Consider RRIRERPPRLPRPRPRPCPIPRP, for which the “shrunken log2 fold change” value is -0.246.

For the sequence RRIRFRPPRLPRPRPRPGAIPRP, the “shrunken log2 fold change” value is -0.244.

RRIRGRPPRLPRPRPRPYNNPRP: the “shrunken log2 fold change” value is -0.321.

As to RRIRSRPPRLPRPRPRPYPFPRP, the “shrunken log2 fold change” value is -0.716.

Turning to RRIRWRPPRLPRPRPRPHLVPRP, the “shrunken log2 fold change” value turned out to be 0.392.

These data come from the supplement of paper PMC9112550, “Optimization of the antimicrobial peptide Bac7 by deep mutational scanning” (BMC Biology, 2022).
